Reference: patent publication US20250129153A1 (Johns Hopkins, published 2025)

T1: human ZnT8-His (full-length ZnT8, isoform-2, C-terminal His-tag) (human, UniProt Q8IWU4-2 1-320)
T1 construct: mature; Expressed in 293-F cells; Used detergent-solubilized on nickel-coated plates, or purified and reconstituted into DOPC/DOPE/DOPG proteoliposomes (mixed orientations); Described as a homodimer; also called flZnT8; detergent-solubilized ZnT8; not shown: C-terminal His-tag
T1 sequence (looked up): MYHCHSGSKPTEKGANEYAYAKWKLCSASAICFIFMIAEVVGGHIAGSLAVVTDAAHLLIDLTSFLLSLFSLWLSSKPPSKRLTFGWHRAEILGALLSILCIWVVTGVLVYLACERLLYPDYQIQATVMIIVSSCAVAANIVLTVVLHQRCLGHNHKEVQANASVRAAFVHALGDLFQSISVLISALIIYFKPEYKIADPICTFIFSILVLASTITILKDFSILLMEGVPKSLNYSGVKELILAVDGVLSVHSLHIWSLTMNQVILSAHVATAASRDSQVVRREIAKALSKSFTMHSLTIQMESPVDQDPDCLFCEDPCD

T2: mouse ZnT8 (endogenous, in mouse pancreatic islets and β-cells) (mouse, UniProt Q8BGG0 1-367)
T2 construct: whole, on cells
T2 sequence (looked up): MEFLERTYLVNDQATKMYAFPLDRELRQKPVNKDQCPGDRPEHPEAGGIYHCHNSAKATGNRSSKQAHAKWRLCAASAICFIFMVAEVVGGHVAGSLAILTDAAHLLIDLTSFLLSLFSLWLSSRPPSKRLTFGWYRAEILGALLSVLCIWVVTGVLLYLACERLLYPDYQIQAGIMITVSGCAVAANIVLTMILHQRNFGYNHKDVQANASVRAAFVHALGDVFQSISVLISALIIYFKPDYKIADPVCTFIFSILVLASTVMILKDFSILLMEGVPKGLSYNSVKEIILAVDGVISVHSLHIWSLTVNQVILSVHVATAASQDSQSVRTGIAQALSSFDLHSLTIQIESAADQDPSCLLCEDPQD

T3: human ZnT8 (endogenous, in EndoC-βH1 cells and human pancreatic islets) (human, UniProt Q8IWU4 1-369)
T3 construct: also called cell surface ZnT8; endogenous ZnT8
T3 sequence: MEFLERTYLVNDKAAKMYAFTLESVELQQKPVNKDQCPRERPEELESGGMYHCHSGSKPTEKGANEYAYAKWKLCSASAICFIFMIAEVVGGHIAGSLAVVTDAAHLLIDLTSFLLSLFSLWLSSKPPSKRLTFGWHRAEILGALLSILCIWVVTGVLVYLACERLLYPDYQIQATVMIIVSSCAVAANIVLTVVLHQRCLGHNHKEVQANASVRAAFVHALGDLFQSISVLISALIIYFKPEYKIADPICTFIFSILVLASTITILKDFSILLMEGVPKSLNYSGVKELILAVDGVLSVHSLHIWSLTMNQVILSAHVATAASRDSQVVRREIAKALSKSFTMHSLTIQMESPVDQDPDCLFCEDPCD

T4: rat ZnT8 (endogenous, in INS-1E cells) (rat, UniProt P0CE46 1-368)
T4 construct: whole, on cells; also called ZnT8 in rodent β-cells
T4 sequence (looked up): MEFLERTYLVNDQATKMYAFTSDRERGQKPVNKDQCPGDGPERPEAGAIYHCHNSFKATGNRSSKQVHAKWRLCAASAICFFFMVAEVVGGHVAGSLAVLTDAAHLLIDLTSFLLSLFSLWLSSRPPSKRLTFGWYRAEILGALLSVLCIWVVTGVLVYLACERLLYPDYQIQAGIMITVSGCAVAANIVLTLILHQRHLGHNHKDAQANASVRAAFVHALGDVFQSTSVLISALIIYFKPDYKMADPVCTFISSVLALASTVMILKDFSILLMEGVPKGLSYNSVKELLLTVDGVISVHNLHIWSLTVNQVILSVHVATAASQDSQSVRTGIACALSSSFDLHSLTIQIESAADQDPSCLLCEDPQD


What was measured:
[1] = molecular target: human CTD-His (cytosolic C-terminal domain of ZnT8, C-terminal His-tag) (human) (UniProt Q8IWU4); assay: ELISA, mAb titration on CTD (CTD-His) captured on a plate
[2] = molecular target: T1, human ZnT8-His (full-length ZnT8, …); assay: ELISA titration to ZnT8 proteoliposomes, hyperbolic fit (printed as binding affinity)
Experimental: (§1) Comparative ELISAs. For proteoliposome-based ELISA, 4 μg proteoliposomes (containing 5% human ZnT8-His by weight) diluted in 100 μl PBS were added to each well of a high-binding 96-well plate, and incubated overnight at 4° C. The passively immobilized proteoliposomes were blocked with 5% BSA, and then tested with hybridoma culture supernatants. For solution-based ELISA, 293-F cells expressing human ZnT8-His or CTD-His were mechanically lysed using a microfluidizer, and cleared of cell debris by ultracentrifugation. Then, 0.2 μg human ZnT8-His from detergent-solubilized cell membrane or 0.1 μg CTD-His from cell lysate in 100 μl PBS were immobilized to each well of a nickel-coated 96-well plate via the C-terminal His-tag. The immobilized protein was blocked by 5% BSA, and then tested with mouse sera in 3-fold serial dilutions or hybridoma culture supernatants. Bound serum antibodies were detected by an HRP-conjugated goat anti-mouse IgG secondary antibody (1:3000) on a Flexstation-3 microplate reader.
Lymphocytes responsible for the production of antibodies to highly conserved epitopes of ZnT8 may be eliminated during the development of self-tolerance that prevents lymphocytes from attacking self-antigens. […]

[3] = molecular target: T1, human ZnT8-His (full-length ZnT8, …); assay: ELISA, mAb titration on detergent-solubilized flZnT8 (ZnT8-His) captured on a plate
From the text: FIGS. 1A-1G show induction of anti-TMD antibodies and biochemical characterization. […] The TMD is imbedded in the lipid bilayer while the CTD is extended into the cytoplasm. […] Error bars are standard errors from 4 ZnT8-KO or 4 NOD mice, *p<0.01 (n=4). […] Note, ZnT8 in proteoliposomes adopted mixed transmembrane orientations exposing either TMD or CTD to antibody binding as indicated. Solid lines are least-square fits of binding curves to a hyperbolic function with r2>0.98.
as §1, with “The immobilized protein was blocked by 5% BSA, and then tested with mouse sera in 3-fold serial dilutions or hybridoma culture supernatants.” left out

[4] = molecular target: T2, mouse ZnT8 (endogenous, in mouse …); assay: flow cytometry of live dispersed mouse pancreatic cells, chimeric mAb20 and PE anti-human IgG, DCV gate
Experimental: Tissue dispersion and pancreatic cell labeling. Excised pancreata from C57BL/6 mice were cut into small pieces, minced, and washed with HBSS on a 70-μm strainer to remove hematopoietic cells. The washed tissue pellets were resuspended in accutase and incubated at 37° C. for 30 min. DCV was added to stain DNA of live cells. The dispersed cells were filtrated through the strainer by a gentle spin at 1200 rpm for 2 min. The remaining tissue pellets underwent additional cycles of accutase digestion and cell filtration to achieve a complete cell dispersion. The dispersed cells were pooled and washed with cold cell culture medium with DNase and trypsin/chymotrypsin inhibitors. At this point, cell viability, measured by trypan blue exclusion, was typically over 80%. […] Chimeric mAb20 was used as an isotype control.
Fluorescence activated cell sorting and confocal microscopy analysis. The labeled pancreatic cells were analyzed and sorted immediately on a MoFlo XDP cell sorter (Beckman Coulter) equipped with a 405 and 561 nm laser. Data were collected on forward scatter, side scatter, and 440 nm and 578 nm fluorescence channels. Cells gated on forward and side scatter yielded >1 million single-cell counting events. The sorted cells in R0 or R1 gate were deposited on the glass bottom of a microwell dish by a gentle centrifugation (1200 rpm, 1 min). […]

[5] = molecular target: T3, human ZnT8 (endogenous, in EndoC-βH1 …); assay: imaging quantification, live EndoC-βH1 cells, 37 °C (surface binding and uptake)
Experimental: (§2) For intracellular IF labeling, live cells were washed with a high glucose (20 mM) Krebs buffer, fixed using a flowcytometry fixation buffer for 20 min at RT, washed again using PBS, permeabilized with flowcytometry permeabilization buffer for 20 min at RT, blocked with PBS plus 5% BSA for 30 min, and then exposed to mAb43 (1:1000), mAb20 (1:1000), anti-CD71 (1:200) or anti-Na+/K+ ATPase (1:200) antibody for 2 hr at room temperature. Secondary antibody immunolabeling, DAPI counterstain and immunofluorescence imaging were performed using the same procedure as above. For experiments with wild-type INS-1E cells or ZnT8-KO INS-1E cells (13), cells were grown in RMPI 1640 medium supplied with 10% (v/v) fetal bovine serum (FBS), 100 units/ml penicillin, 100 μg/ml streptomycin, 10 mM HEPES, 2 mM glutamine, 1 mM sodium pyruvate and 50 μM β-ME. Immunofluorescence labeling and imaging followed the same procedure as above.
(§3) To track cell-surface capture of mAb43 and the ensuing ZnT8-mediated mAb43 endocytosis, a fluorescent A647 secondary antibody to label mAb20 and mAb43, and a CellMask green stain were used to demarcate the cell boundary. Live EndoC-βH1 cells were monitored for antibody surface binding and internalization. mAb43-A647 was rapidly internalized at 37° C. whereas mAb20-A647 exposure yielded no detectable signal (FIG. 5A). […]

[6] = molecular target: T1, human ZnT8-His (full-length ZnT8, …); assay: ELISA titrations
[7] = molecular target: T3, human ZnT8 (endogenous, in EndoC-βH1 …); assay: imaging quantification, live EndoC-βH1 cells, 8 °C (cell surface binding)
Experimental: as §2, §3

[8] = molecular target: T3, human ZnT8 (endogenous, in EndoC-βH1 …); assay: cell-based or functional assay
[9] = molecular target: T2, mouse ZnT8 (endogenous, in mouse …); assay: immunofluorescence of dispersed, fixed and permeabilized mouse islet cells
[10] = molecular target: T4, rat ZnT8 (endogenous, in INS-1E cells); assay: immunofluorescence of live INS-1E cells; labeling abolished in ZnT8-knockout INS-1E cells

| EC50 (read off the curve) [1] | Kd [2] | EC50 (read off the curve) [3] | binding result [4] | fold increase of total mAb43-A647 IF-labeling by glucose stimulation (20 mM against 2 mM) at 37 °C [5] | fold increase of mAb43 reactivity, ZnT8 in proteoliposomes against detergent-solubilized ZnT8 [6] | fold increase of total mAb43-A647 IF-labeling by glucose stimulation (20 mM against 2 mM) at 8 °C [7] | net mAb43-A647 uptake (difference in IF signals between 37 °C and 8 °C), fold increase by glucose stimulation (20 against 2 mM) [8] | binding result [9] | binding result [10] | Binder |
| --- | --- | --- | --- | --- | --- | --- | --- | --- | --- | --- |
| 0.7 nM | 0.57 nM | ~2 nM |  |  |  |  |  |  |  | mAb20 (antibody, mouse IgG1, kappa, V domains shown, Validated anti-CTD control antibody; also called anti-CTD mAb20; mAb20-A647 (mAb20 labeled with a fluorescent A647 secondary antibody)) VH: QIQLVQSGPELKKPGETVKISCKASGYIFTNYPMHWVKQAPGKGLKWMGWINTYSGVPTHADDFKGRFAFSLETSANSAFLQINNLKNEDTATYFCTRSRITPTGGYAMDYWGQGTSVTVSS VL: DVVMTQTPLSLPVSLGDQASISCRSSQSLVHSNGNTYLHWYLQKPGQSPNLLISKVSNRFSGVPERFSGSGSGTDFTLKISRVEAEDLGVYFCSQNTHVPWTFGGGTKLEIKR |
|  |  |  | no binding |  |  |  |  |  |  | chimeric mAb20 (mouse/human) (antibody, V domains shown, also called mouse/human chimeric mAb20) VH: QIQLVQSGPELKKPGETVKISCKASGYIFTNYPMHWVKQAPGKGLKWMGWINTYSGVPTHADDFKGRFAFSLETSANSAFLQINNLKNEDTATYFCTRSRITPTGGYAMDYWGQGTSVTVSS VL: DVVMTQTPLSLPVSLGDQASISCRSSQSLVHSNGNTYLHWYLQKPGQSPNLLISKVSNRFSGVPERFSGSGSGTDFTLKISRVEAEDLGVYFCSQNTHVPWTFGGGTKLEIK |
|  | 0.42 nM | ~2 nM |  | 22.1 fold | 6.29 fold | 15 fold | 30.9 fold | binds | binds | mAb43 (antibody, V domains shown, Hybridoma monoclonal antibody from a ZnT8-proteoliposome-immunized NOD mouse; also called mouse mAb43; anti-TMD mAb) VH: EVQLQQSGPELVKPGASVKIACKASGYTFTGYYMKWVKQSLGKSLEWIGDINPNNGGTNYNQHFKGKATLTVDESSSTAYMELRSLTSEDSAVYYCARGVDWIFAFWGQGTLVTVSP VL: SIVMTQTPKFLPVSAGDRVTMTCKASQSVGNKVAWYQQKPGQSPKLLIYYATNRYTGVPDRFTGSGSGTDFTFTISSVQVEDLAVYFCQQHYSSPWTFGGGTKLEIK |
